Source: patent US20080220049A1
Numbering of substitutions follows the chain as printed.

B1: A4 (designed binder)
chain: EVVAATPTSLLISWRHPHFPTRYYRITYGETGGNSPVQEFTVPLQPPTATISGLKPGVDYTITGYAVTDGYNDRLLFIPISINYRT
B2: A7 (designed binder)
chain: B1 chain with Y71P, D73N, L75E, F77I, I78V
B3: A8 (designed binder)
chain: B1 chain with Y71L, D73G, R74K, L75Y, I78V
B4: A9 (designed binder)
chain: B1 chain with D69E, Y71W, L75E, I78V
B5: A10 (designed binder)
chain: B1 chain with D69F, Y71W, D73G, L75E, F77L, I78T
B6: D11 (designed binder)
chain: B1 chain with D69V, G70E, Y71R, D73G, R74H, L75K, I78T
B7: EGE9 (designed binder)
chain: B1 chain with D69F, Y71P, L75E, F77L, I78T
B8: EGE10 (designed binder)
chain: B1 chain with D69M, Y71P, L75E, F77L, I78T
B9: EGE11 (Table 2 row SEQ ID NO 88) (designed binder)
chain: B1 chain with D69M, Y71K, L75E, F77L, I78T
B10: E21 (designed binder)
chain: B1 chain with D69W, N72K, R74H, L75E, F77L
B11: E22 (designed binder)
chain: B1 chain with D69L, Y71R, L75E, F77L, I78T
B12: E12 (designed binder)
chain: B1 chain with D69F, G70A, Y71R, N72D, D73G, R74H, L75E, L76I, F77L, I78T
B13: E13 (designed binder)
chain: B1 chain with D69L, G70E, Y71Q, D73G, L75E, F77M, I78T
B14: E15 (designed binder)
chain: B1 chain with D69L, G70E, Y71P, D73G, L75Y, F77M, I78V
B15: E10 (designed binder)
chain: B1 chain with D69E, Y71R, D73G, L75E
B16: F1 (designed binder)
chain: B1 chain with D69S, Y71R, L75E, F77L, I78V
B17: F10 (designed binder)
chain: B1 chain with D69M, G70A, Y71P, D73G, L75E, F77L, I78T
B18: F12 (designed binder)
chain: B1 chain with Y71R, D73G, R74H, L75E, F77M, I78T
B19: G1 (designed binder)
chain: B1 chain with D69E, Y71R, D73G, L75E, F77M, I78V

Target: mouse vascular endothelial growth factor receptor-2 Fc chimera (Flk-1-Fc) (mouse) (UniProt P35918)
Sequence (P35918 20-762, change not shown): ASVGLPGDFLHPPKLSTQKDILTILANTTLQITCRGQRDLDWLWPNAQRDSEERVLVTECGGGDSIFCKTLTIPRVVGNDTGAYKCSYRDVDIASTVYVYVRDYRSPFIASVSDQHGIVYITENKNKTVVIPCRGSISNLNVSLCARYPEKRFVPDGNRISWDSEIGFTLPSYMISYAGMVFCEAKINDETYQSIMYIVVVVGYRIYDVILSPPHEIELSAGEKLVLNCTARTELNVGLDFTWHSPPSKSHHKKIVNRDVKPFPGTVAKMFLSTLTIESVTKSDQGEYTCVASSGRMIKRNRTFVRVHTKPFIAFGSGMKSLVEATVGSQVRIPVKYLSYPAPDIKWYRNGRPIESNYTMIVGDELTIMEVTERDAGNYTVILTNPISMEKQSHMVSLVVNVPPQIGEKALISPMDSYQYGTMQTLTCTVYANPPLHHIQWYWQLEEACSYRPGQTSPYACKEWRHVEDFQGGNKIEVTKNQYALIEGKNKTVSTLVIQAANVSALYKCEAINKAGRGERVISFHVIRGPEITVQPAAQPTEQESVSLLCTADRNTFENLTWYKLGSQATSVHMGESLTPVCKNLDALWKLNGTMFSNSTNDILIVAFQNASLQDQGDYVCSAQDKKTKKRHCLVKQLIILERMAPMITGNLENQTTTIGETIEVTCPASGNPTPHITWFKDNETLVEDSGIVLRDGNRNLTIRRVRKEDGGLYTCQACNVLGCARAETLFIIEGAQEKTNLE
Test: radioactive equilibrium binding, 1 nM Flk-1-Fc

B1 and B2 are the same in Binding to 1 nM Flk-1, %: 2% for the first, 2% for the second.

B3 and B4 are the same in Binding to 1 nM Flk-1, %: 4% for the first, 4% for the second.

First: B5
Second: B6
The Binding to 1 nM Flk-1, % of the first is higher: 4% for the first, 3% for the second.

B7 and B8 are the same in Binding to 1 nM Flk-1, %: 1% for the first, 1% for the second.

B9 and B10 are the same in Binding to 1 nM Flk-1, %: 1% for the first, 1% for the second.

First: B11
Second: B12
The Binding to 1 nM Flk-1, % of the first is higher: 3% for the first, 1% for the second.

Going from B13 to B14, the Binding to 1 nM Flk-1, % rises from 1% to 2%.

First: B15
Second: B16
The Binding to 1 nM Flk-1, % of the first is higher: 3% for the first, 2% for the second.

B17 and B18 are the same in Binding to 1 nM Flk-1, %: 1% for the first, 1% for the second.

B19 gave a Binding to 1 nM Flk-1, % of 2%.
